Values of other authors in article PMC4536614.

Biological target: C3d C3d (Homo sapiens) (UniProt P01024)
Sequence (P01024 1002-1303): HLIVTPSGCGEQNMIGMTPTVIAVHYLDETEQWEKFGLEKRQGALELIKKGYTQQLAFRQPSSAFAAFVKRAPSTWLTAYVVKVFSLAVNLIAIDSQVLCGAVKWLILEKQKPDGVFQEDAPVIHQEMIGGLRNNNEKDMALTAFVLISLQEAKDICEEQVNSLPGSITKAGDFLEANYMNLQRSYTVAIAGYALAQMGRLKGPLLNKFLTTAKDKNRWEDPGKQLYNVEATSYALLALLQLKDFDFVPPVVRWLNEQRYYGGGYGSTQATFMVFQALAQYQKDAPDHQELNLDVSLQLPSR

Sequence of complement receptor 2 (CR2) (P20023 21-971): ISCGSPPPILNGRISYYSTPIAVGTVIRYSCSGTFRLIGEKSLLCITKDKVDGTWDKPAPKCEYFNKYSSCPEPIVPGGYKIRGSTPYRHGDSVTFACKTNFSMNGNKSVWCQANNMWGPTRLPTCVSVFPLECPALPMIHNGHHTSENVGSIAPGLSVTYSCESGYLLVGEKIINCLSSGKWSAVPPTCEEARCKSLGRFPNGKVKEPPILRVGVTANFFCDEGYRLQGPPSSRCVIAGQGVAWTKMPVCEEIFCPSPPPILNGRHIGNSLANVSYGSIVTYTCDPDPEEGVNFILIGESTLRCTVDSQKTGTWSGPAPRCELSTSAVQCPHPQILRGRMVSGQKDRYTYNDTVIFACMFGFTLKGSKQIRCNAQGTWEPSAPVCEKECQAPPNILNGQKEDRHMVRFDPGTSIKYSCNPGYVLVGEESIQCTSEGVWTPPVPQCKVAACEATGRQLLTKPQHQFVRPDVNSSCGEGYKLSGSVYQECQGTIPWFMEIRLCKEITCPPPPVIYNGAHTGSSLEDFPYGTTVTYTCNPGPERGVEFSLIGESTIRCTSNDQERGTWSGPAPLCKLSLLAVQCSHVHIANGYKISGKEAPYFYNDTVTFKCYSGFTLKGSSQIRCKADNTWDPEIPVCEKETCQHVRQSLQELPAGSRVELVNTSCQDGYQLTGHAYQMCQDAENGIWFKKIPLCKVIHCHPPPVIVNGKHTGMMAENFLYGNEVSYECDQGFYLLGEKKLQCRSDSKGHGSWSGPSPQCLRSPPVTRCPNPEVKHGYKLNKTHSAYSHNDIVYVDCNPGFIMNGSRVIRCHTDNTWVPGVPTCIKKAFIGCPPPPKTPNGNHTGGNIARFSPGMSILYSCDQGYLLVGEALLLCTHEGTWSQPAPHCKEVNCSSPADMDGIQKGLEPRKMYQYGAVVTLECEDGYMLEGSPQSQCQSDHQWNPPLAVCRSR

Kd: 500 nM
Substance: complement receptor 2 (CR2) (from UniProt P20023)
